According to article PMC4072508, “Genome-Wide Prediction and Validation of Peptides That Bind Human Prosurvival Bcl-2 Proteins” (PLoS Computational Biology, 2014):

T1: Mcl-1, Q07820
T1 chain: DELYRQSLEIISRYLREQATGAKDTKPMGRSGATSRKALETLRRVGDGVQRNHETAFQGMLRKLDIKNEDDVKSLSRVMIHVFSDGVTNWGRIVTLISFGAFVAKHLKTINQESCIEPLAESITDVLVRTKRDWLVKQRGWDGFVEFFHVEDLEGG


Target: T1, Mcl-1, Q07820
Experiment: peptide SPOT array, c-Myc-tagged receptor at 1 uM or 100 nM, anti-c-Myc-Cy3

| SPOT signal as a fraction of Bim BH3's signal on the same receptor and array | Binder |
| --- | --- |
| 0.03 | KKSLAGAAQILLKGAERLTKSVTENQ [MED17] |
| 0.02 | QLQTLPYVGFLEHIGRILDLQLEDNK [SLITRK6] |
| 0.03 | AAVVLSVATFLYQVAERVRYYREFHH [ACCN3] |
| 0.02 | KEYRNQFPEILRRAAAHLECIFRFEL [MAGEE1] |
| 0.01 | KTVVDLVSADLEEVAQKCGLSYKAEA [RAD51L3] |
| 0.03 | RTGDIALAYRLTDLGSRLLSQLERPL [KIAA1383] |
| 0.11 | EELLRSSADFLQRLSAILRTSLRFRL [NOTCH3] |
| 0.02 | LEMVSGSIQVLKHMSGRVGEELDEQG [STX10] |
| 0.05 | FEVDDGTSVLLKKNSQHFLPRWKCEQ [GINS1] |
| 0.08 | SRTLTLIAKVIQNLANFAKFGNKEEY [RASAL2] |
| 0.02 | HNATLILSEGLKRAGHQLQHDLFFDT [GLDC] |
| 0.01 | PSIQLHGAKLLEELGTGLIQQYKPDS [HEATR6] |
| 1 | MRPEIWIAQELRRIGDEFNAYYARRV [BCL2L11] |
| 0.01 | NATHEEVVHLDRNAGDEVTITVEYLR [SNTG2] |
| 0.02 | EITQHNVTELLRDVAAWGRARATGGD [C19orf51] |
| 0.02 | VPAGVSLARNLKRVAEVWMDEYAEYI [GALNT10] |
| 0.14 | KVRAHHYSVALRRLGQLLGSRPRPPP [FASTK] |
| 0.03 | SKVRERYVQMLDQIARQMIDFYKDLV [C1orf125] |
| 0.1 | ITMVPQASEILAKMSELVHRRLRHGS [ZFPM2] |
| 0.37 | ADLRALLCRELRPLGAYMSGRLKVKG [STOML1] |

| SPOT signal as a fraction of Bim BH3's signal on the same receptor and array | Binder |
| --- | --- |
| 0.16 | EVQDRLAHKGISQAARYVYQRLINDG [DAGLB] |
| 0.02 | QDKILVAVKTLKDASDNARKDFHREA [NTRK2] |
| 0.04 | LEGFRKNEEVLKRCAQEYLSRVKKEE [TACC2] |
| 0.02 | PLSNDTIARRIQELANDMEDQLIEQI [SCAND3] |
| 0.02 | LFIPLNISCLLKEGSEHLFDSFEPET [DEPDC5] |
| 0.11 | ERFEGFCVDMLRELAELLRFRYRLRL [GRIK5] |
| 0.01 | TRELQELARKDQELADASENLLTENT [TXNDC11] |
| 0.02 | CKDPKACTILLRGASKEILSEVERNL [CCT3] |
| 0.13 | LLPRETVAGALRRLGARGGGKGRKGP [CD2BP2] |
| 0.17 | SNKIRNLSTTLQTIATKLCRELYSKE [CLEC12A] |
| 0.02 | PQRQRLLADLLHNVSQNIAAETRAED [DFFB] |
| 0.02 | EEITSDAAYVIQDLATLFEELQREKK [XXXX] |
| 0.03 | DISALTASNLLKRYAEKYSGVLDSPY [FIGNL2] |
| 0.02 | VKGAEITGKAIQKGASKLRERIQPEE [SPG20] |
| 0.02 | IIKDQLNVSNIDQVARHLRGLLEEEC [CCDC24] |
| 0.01 | PKPDSDVTQTINTVAYHARPDSDQRF [BARD1] |
| 0.01 | EQAARVAIEHLDKISDSVLVDIKDTE [CCT5] |
| 0.13 | VMGSMFAVISLASIAVYFAKRFKRKN [LRRN1] |
| 0.11 | MAADTQVSETLKRFAGKVTTASVKER [GCN1L1] |

| Binder | SPOT signal as a fraction of Bim BH3's signal on the same receptor and array |
| --- | --- |
| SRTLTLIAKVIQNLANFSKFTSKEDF [SYNGAP1] | 0.08 |
